Assay results from patent publication US6972178B1, “Drug screening using a proline-rich nuclear receptor co-regulatory protein/nuclear receptor co-expression system” (City of Hope, priority 1999, dated 2005).

Target: T1, ERRα1 (Homo sapiens, UniProt P11474)
T1 construct: inserting the PCR-amplified ERRA-1 coding region into pGBT9 through an EcoRI site; expressed in transfected cells; host or cells: yeast Y187 x CG1945 diploids
T1 sequence (P11474 1-423): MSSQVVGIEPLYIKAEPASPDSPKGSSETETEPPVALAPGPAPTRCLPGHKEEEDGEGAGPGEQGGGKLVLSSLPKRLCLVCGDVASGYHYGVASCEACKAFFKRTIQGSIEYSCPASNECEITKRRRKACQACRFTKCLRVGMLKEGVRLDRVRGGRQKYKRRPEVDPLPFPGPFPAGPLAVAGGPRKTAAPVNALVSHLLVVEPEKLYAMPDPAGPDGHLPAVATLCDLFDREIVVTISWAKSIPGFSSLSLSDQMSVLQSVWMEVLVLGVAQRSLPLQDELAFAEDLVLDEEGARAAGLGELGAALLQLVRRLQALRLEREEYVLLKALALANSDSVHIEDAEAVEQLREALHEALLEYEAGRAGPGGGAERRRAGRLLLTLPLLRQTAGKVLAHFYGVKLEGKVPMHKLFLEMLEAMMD
Assay: Nuclear receptor transactivation, CAT reporter in SK-BR-3 cells
Format: cell-based
Description: To examine the possible biological significance of this interaction, the entire PNRC coding region was inserted into a mammalian expression vector, pSG5, and this expression plasmid was used to transiently transfect SK-BR-3 cells along with a reporter plasmid, pUMS 1.3CAT-(SF1site)3, which contains three copies of extended steroid hormone half binding site from the human aromatase gene (5′-CCAAGGTCAGAA-3′ (SEQ ID NO:3)), promoter 1.3 of the human aromatase gene, and the CAT reporter gene, along with a second expression plasmid for either SF1 (pSG5-SF1) or ERRα1 (pSG5-ERRα1) (Yang et al., 1998).
Plasmid for overexpression of PNRC in mammalian cells was made by inserting PCR-amplified fragment with BclI at both ends into the BamHI site in pSG5 vector (Stratagene). To construct mammalian expression plasmids for bovine SF1 and human ERRα1, named pSG5-bSF1 and pSGS-hERRα1, the coding regions for SF1 and ERRα1 were amplified by PCR with an EcoRI site at both ends, and inserted into an EcoRI site of the pSG5 vector. The CAT reporter plasmid, pUMS1.3CAT-(SF1site)3, was prepared by inserting 3 copies of SF1 binding site from human aromatase gene, 5′-CCAAGGTCAGAA-3′ (SEQ ID NO:3), into pUMS-64/+5CAT (Zhou and Chen, 1999) through a HindIII site. […]

PNRC: proline-rich nuclear receptor co-regulatory protein, 327 aa, SEQ ID NO:8, nuclear receptor coactivator
effect on ERRα1-stimulated transcription by promoter 1.3 of the human aromatase gene: enhanced both SF1-stimulated and ERRα1-stimulated transcription
